# ± gives the uncertainty stated by the source.
# Assay: protein stability index of a GFP-peptide fusion (yeast GPS) (PSI 1-4); higher = more stable; sorted into four equal gates, so the index is relative within each strain
# Procedure, shortened: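 For each peptide, the protein stability index sums the read frequency in every gate after multiplying it by the gate number. Read frequencies came from plasmids that were PCR-amplified from each gate and Illumina-sequenced, with reads assigned to strains by barcodes. The gates were four equal bins of GFP/Cherry fluorescence ratio applied to mid-log yeast in leucine-free medium carrying a pooled library of tiled 17-residue yeast protein peptides fused downstream of GFP on a Cherry-expressing plasmid.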
sequence,measurement,setting,value
KIVYIAPLKALVQEQVR [BRR2],protein stability index,doa10∆,1.4 ± 0.045
same,protein stability index,pdr5∆,1.59 ± 0.044
same,protein stability index,san1∆,1.41 ± 0.089
same,protein stability index,ubr1∆,1.3 ± 0.051
PEGRLYQVEYAFKATNQ [SCL1],protein stability index,doa10∆,2.65 ± 0.086
same,protein stability index,pdr5∆,2.88 ± 0.067
same,protein stability index,san1∆,1.78 ± 0.1
same,protein stability index,ubr1∆,2.32 ± 0.062
VSRGQSAVLLETTLGEM [PRP8],protein stability index,doa10∆,2.13 ± 0.12
same,protein stability index,pdr5∆,2.36 ± 0.15
MVMFMHMAKGLYYGSYR [COB],protein stability index,doa10∆,1.18 ± 0.086
same,protein stability index,pdr5∆,1.16 ± 0.13
same,protein stability index,san1∆,1.75 ± 0.22
same,protein stability index,ubr1∆,1.13 ± 0.072
IESIRSCKDSQLKWAQN [YIL149C/MLP2],protein stability index,doa10∆,2.78 ± 0.064
same,protein stability index,pdr5∆,3.01 ± 0.069
same,protein stability index,san1∆,2.75 ± 0.053
same,protein stability index,ubr1∆,2.95 ± 0.053
KENKKRKNFKMGPLYQN [IRR1],protein stability index,doa10∆,1.33 ± 0.046
same,protein stability index,pdr5∆,1.99 ± 0.08
same,protein stability index,san1∆,2.05 ± 0.078
same,protein stability index,ubr1∆,2.13 ± 0.059
SKSKQSFTQGELNDLKW [YMR129W/POM152],protein stability index,doa10∆,3.02 ± 0.13
same,protein stability index,pdr5∆,2.81 ± 0.13
same,protein stability index,san1∆,3.08 ± 0.11
same,protein stability index,ubr1∆,2.75 ± 0.092
YLGEGPRMVRDVFRLAR [RPT3],protein stability index,doa10∆,2.79 ± 0.14
same,protein stability index,pdr5∆,2.96 ± 0.053
same,protein stability index,san1∆,2.8 ± 0.14
same,protein stability index,ubr1∆,2.88 ± 0.09
ADKSLPSSMATLLKNLR [YJR042W/NUP85],protein stability index,doa10∆,2.97 ± 0.081
same,protein stability index,pdr5∆,2.81 ± 0.077
same,protein stability index,san1∆,2.87 ± 0.054
same,protein stability index,ubr1∆,2.86 ± 0.057
TDDSFEDKVFASKGRTK [BRN1],protein stability index,pdr5∆,2.74 ± 0.099
same,protein stability index,san1∆,2.93 ± 0.13
same,protein stability index,ubr1∆,2.29 ± 0.18
LNAINNAEKTGKRQVLL [RPS22B],protein stability index,doa10∆,3.35 ± 0.066
same,protein stability index,pdr5∆,3.24 ± 0.078
same,protein stability index,san1∆,3.26 ± 0.072
same,protein stability index,ubr1∆,3.17 ± 0.05
LGDMENNLEKYPFRYKT [RTT102],protein stability index,doa10∆,3.44 ± 0.073
same,protein stability index,pdr5∆,3.39 ± 0.055
same,protein stability index,san1∆,3.46 ± 0.042
same,protein stability index,ubr1∆,3.43 ± 0.081
QQKQQQQQQQHQQQQQQ [SNF5],protein stability index,doa10∆,2.73 ± 0.033
same,protein stability index,pdr5∆,2.8 ± 0.03
same,protein stability index,san1∆,2.81 ± 0.029
same,protein stability index,ubr1∆,2.769 ± 0.026
DEQDDDNVNSTTGSIFE [BRN1],protein stability index,doa10∆,2.88 ± 0.16
same,protein stability index,pdr5∆,2.92 ± 0.13
same,protein stability index,san1∆,2.7 ± 0.15
same,protein stability index,ubr1∆,2.85 ± 0.066
VDVLVISSHSHPVSLIS [RRP42],protein stability index,doa10∆,1.5 ± 0.046
same,protein stability index,pdr5∆,1.53 ± 0.048
same,protein stability index,san1∆,1.57 ± 0.062
same,protein stability index,ubr1∆,1.67 ± 0.03
PSGAKKVISSDARGVIG [RPL2A],protein stability index,doa10∆,2.88 ± 0.072
same,protein stability index,pdr5∆,3.13 ± 0.066
same,protein stability index,san1∆,2.9 ± 0.076
same,protein stability index,ubr1∆,3.04 ± 0.077
RLKDVEWVKLHRLLQRA [RMP1],protein stability index,doa10∆,3.16 ± 0.085
same,protein stability index,pdr5∆,3.13 ± 0.093
same,protein stability index,san1∆,3.24 ± 0.06
same,protein stability index,ubr1∆,3.02 ± 0.079
LDDTTIPVGLMAQENSM [MCD1],protein stability index,doa10∆,1.5 ± 0.071
same,protein stability index,pdr5∆,1.84 ± 0.093
same,protein stability index,san1∆,1.56 ± 0.17
same,protein stability index,ubr1∆,1.87 ± 0.078
GCLNFVDENDEVLLAGF [RPS23A],protein stability index,doa10∆,1.3 ± 0.083
same,protein stability index,pdr5∆,1.53 ± 0.074
same,protein stability index,san1∆,1.5 ± 0.095
same,protein stability index,ubr1∆,1.27 ± 0.068
LKKANIIYHTTFSWLNA [YLR018C/POM34],protein stability index,doa10∆,2.46 ± 0.043
same,protein stability index,pdr5∆,2.45 ± 0.044
same,protein stability index,san1∆,2.41 ± 0.043
same,protein stability index,ubr1∆,2.54 ± 0.036
KHVGFELLSMGNAKESK [SRP72],protein stability index,doa10∆,2.88 ± 0.11
same,protein stability index,pdr5∆,2.03 ± 0.14
same,protein stability index,san1∆,2.4 ± 0.18
same,protein stability index,ubr1∆,3.24 ± 0.14
FLPKLNSVRNSLLLAHF [NUT1],protein stability index,doa10∆,2.15 ± 0.04
same,protein stability index,pdr5∆,1.5 ± 0.046
same,protein stability index,san1∆,1.65 ± 0.07
same,protein stability index,ubr1∆,1.81 ± 0.029
VPPINCIFNFLQQQTPV [SME1],protein stability index,doa10∆,1.34 ± 0.042
same,protein stability index,pdr5∆,1.58 ± 0.035
same,protein stability index,san1∆,1.49 ± 0.065
same,protein stability index,ubr1∆,1.64 ± 0.042
PTTNEPAKPALSFGTAT [YJL041W/NSP1],protein stability index,doa10∆,2.97 ± 0.074
same,protein stability index,pdr5∆,3.08 ± 0.063
same,protein stability index,san1∆,2.96 ± 0.053
same,protein stability index,ubr1∆,3.12 ± 0.042
YTLTEEGVEYLREYLNL [RPS10A],protein stability index,doa10∆,3.28 ± 0.11
same,protein stability index,pdr5∆,3.37 ± 0.095
same,protein stability index,san1∆,3.51 ± 0.16
same,protein stability index,ubr1∆,3.39 ± 0.12
VRPSISFNESQRGEDDL [RPO21],protein stability index,doa10∆,2.49 ± 0.078
same,protein stability index,pdr5∆,2.81 ± 0.088
same,protein stability index,san1∆,2.75 ± 0.093
same,protein stability index,ubr1∆,2.68 ± 0.083
ISSLMFDEEFDPFKTSS [IRR1],protein stability index,san1∆,2.7 ± 0.14
same,protein stability index,ubr1∆,2.99 ± 0.26
TGWNAKTYGISDDIISQ [FAS2],protein stability index,doa10∆,1.99 ± 0.14
same,protein stability index,pdr5∆,1.12 ± 0.12
same,protein stability index,san1∆,1.72 ± 0.24
same,protein stability index,ubr1∆,1.2 ± 0.091
LAGMDVEDALDKDSTKE [FAS2],protein stability index,doa10∆,3.43 ± 0.27
same,protein stability index,pdr5∆,3.72 ± 0.19
FWSFLDSLIFKDSSLNY [YJL039C/NUP192],protein stability index,doa10∆,3.22 ± 0.076
same,protein stability index,pdr5∆,2.74 ± 0.078
same,protein stability index,san1∆,2.11 ± 0.15
same,protein stability index,ubr1∆,2.46 ± 0.079
IEKSRLFSEKTIRYLMQ [SNF6],protein stability index,doa10∆,1.82 ± 0.069
same,protein stability index,pdr5∆,2.29 ± 0.048
same,protein stability index,san1∆,2.28 ± 0.084
same,protein stability index,ubr1∆,1.86 ± 0.055
LKNTKYFQQTTIDWVEA [PRP8],protein stability index,doa10∆,2.93 ± 0.078
same,protein stability index,pdr5∆,2.96 ± 0.08
same,protein stability index,san1∆,2.83 ± 0.054
same,protein stability index,ubr1∆,2.75 ± 0.072
RELLNPRYTYHTIFSDV [YML031W/NDC1],protein stability index,doa10∆,3.01 ± 0.053
same,protein stability index,pdr5∆,3.05 ± 0.052
same,protein stability index,san1∆,2.71 ± 0.045
same,protein stability index,ubr1∆,2.93 ± 0.058
LEAKRKVSSAEYYAKKR [RPL16A],protein stability index,doa10∆,3.06 ± 0.14
same,protein stability index,pdr5∆,3.3 ± 0.11
same,protein stability index,san1∆,2.86 ± 0.11
same,protein stability index,ubr1∆,3.35 ± 0.09
KIAVLNNDKREIQEELE [SMC1],protein stability index,doa10∆,3.23 ± 0.067
same,protein stability index,pdr5∆,3.37 ± 0.056
same,protein stability index,san1∆,3.32 ± 0.039
same,protein stability index,ubr1∆,3.25 ± 0.047
RRRREGKTDYYQRKRLV [RPL5],protein stability index,doa10∆,3.31 ± 0.094
same,protein stability index,pdr5∆,3.26 ± 0.079
same,protein stability index,san1∆,3.13 ± 0.046
same,protein stability index,ubr1∆,3.26 ± 0.035
KNNNGDEKNKNNNEDNE [MED2],protein stability index,doa10∆,3.23 ± 0.12
same,protein stability index,pdr5∆,3.17 ± 0.11
same,protein stability index,san1∆,2.87 ± 0.11
same,protein stability index,ubr1∆,3.15 ± 0.11
NISIITLELESFLEGSK [RGR1],protein stability index,doa10∆,2.44 ± 0.054
same,protein stability index,pdr5∆,2.48 ± 0.059
same,protein stability index,san1∆,2.75 ± 0.059
same,protein stability index,ubr1∆,2.94 ± 0.071
IYHGNHDVGELFWKVKE [PRE2],protein stability index,doa10∆,1.9 ± 0.063
same,protein stability index,pdr5∆,1.95 ± 0.066
same,protein stability index,san1∆,2.02 ± 0.084
same,protein stability index,ubr1∆,2.45 ± 0.049
SKKDPRILKNVSPNDNN [YMR153W/NUP53],protein stability index,doa10∆,2.65 ± 0.069
same,protein stability index,pdr5∆,2.36 ± 0.045
same,protein stability index,san1∆,2.42 ± 0.054
same,protein stability index,ubr1∆,2.47 ± 0.034
LNRIKKYLLTQRVFKPV [PRP8],protein stability index,doa10∆,2.22 ± 0.075
same,protein stability index,pdr5∆,2.25 ± 0.072
same,protein stability index,san1∆,2.33 ± 0.096
same,protein stability index,ubr1∆,2.48 ± 0.069
KMLNEFVKKTSEEIDSL [SMC2],protein stability index,doa10∆,2.61 ± 0.099
same,protein stability index,pdr5∆,3.19 ± 0.15
same,protein stability index,ubr1∆,3.09 ± 0.12
AIPNPEDVVAISSRTFG [RPS0A],protein stability index,doa10∆,3.22 ± 0.1
same,protein stability index,pdr5∆,2.94 ± 0.05
same,protein stability index,san1∆,2.91 ± 0.077
same,protein stability index,ubr1∆,2.94 ± 0.043
SVTVSQGNYVTEDIREG [YMR129W/POM152],protein stability index,doa10∆,2.82 ± 0.061
same,protein stability index,pdr5∆,2.91 ± 0.064
same,protein stability index,san1∆,2.87 ± 0.061
same,protein stability index,ubr1∆,2.85 ± 0.05
MGRVRTKTVKRASKALI [RPS17A],protein stability index,doa10∆,3.05 ± 0.12
same,protein stability index,pdr5∆,1.87 ± 0.086
same,protein stability index,san1∆,3.1 ± 0.069
same,protein stability index,ubr1∆,1.52 ± 0.06
DSEDEDSMKDTTDMISV [YML031W/NDC1],protein stability index,doa10∆,3.17 ± 0.17
same,protein stability index,san1∆,3.2 ± 0.11
same,protein stability index,ubr1∆,2.98 ± 0.21
QKVLNAHRQRAMEARSS [SMC4],protein stability index,doa10∆,1.95 ± 0.12
same,protein stability index,pdr5∆,2.36 ± 0.15
same,protein stability index,san1∆,1.98 ± 0.15
same,protein stability index,ubr1∆,1.32 ± 0.073
